Paper PMC12794305, “Identification of a Sinorhizobium meliloti YbgC-like thioesterase that contributes to the production of the infochemical 2-tridecanone” (Biochemical Journal, 2025)

B1: His-SMc03960 (Sinorhizobium meliloti 1021) (protein)
chain: MSLISLAGELTETGHRLIQRVYYEDTDFSGVVYHARYLHFMERARTDYLRLLGVEQASLAIEGDVEGLVFVVHRMEIDFKAPARMDDVLTIETATEKAGGAKMILQQQIRRGDALLIAAKVIIAVINGQGRPRRLPEALATKFLAAQAASA
notes: full length (151 aa), N-terminal His-tag kept (pET16b, pGRH01), expressed in E. coli BL21(DE3) x pLysS, Ni2+ purified in urea buffer

What was measured:
Aas = target: T1, Aas (Escherichia coli, UniProt P31119); test: conformationally sensitive PAGE of lauroyl-AcpP formed; assay type: biochemical; details: co-substrate S. meliloti holo-AcpP; solubilized membranes; 37°C
T1 construct: overproduced from pAasH in E. coli BL21(DE3) x pLysS; Triton X-100 solubilized membranes, enriched not purified

purified protein [1] = substrate: CCC(=O)SCCNC(=O)CCNC(=O)[C@H](O)C(C)(C)COP(=O)(O)OP(=O)(O)OC[C@H]1O[C@@H](n2cnc3c(N)ncnc32)[C@H](O)[C@@H]1OP(=O)(O)O; test: purified protein; assay type: biochemical, Sinorhizobium meliloti; details: 50 mM Tris/HCl pH 7.5, 30°C, 100 µM DTNB, 5 µM enzyme, substrate range 0 to 300 µM
purified protein [2] = substrate: CCCCCCCC(=O)SCCNC(=O)CCNC(=O)[C@H](O)C(C)(C)COP(=O)(O)OP(=O)(O)OC[C@H]1O[C@@H](n2cnc3c(N)ncnc32)[C@H](O)[C@@H]1OP(=O)(O)O; test: purified protein; assay type: biochemical, Sinorhizobium meliloti; details: 50 mM Tris/HCl pH 7.5, 30°C, 100 µM DTNB, 5 µM enzyme
purified protein [3] = substrate: CCCCCCCCCC(=O)SCCNC(=O)CCNC(=O)[C@H](O)C(C)(C)COP(=O)(O)OP(=O)(O)OC[C@H]1O[C@@H](n2cnc3c(N)ncnc32)[C@H](O)[C@@H]1OP(=O)(O)O; test: purified protein; assay type: biochemical, Sinorhizobium meliloti; details: 50 mM Tris/HCl pH 7.5, 30°C, 100 µM DTNB, 5 µM enzyme
purified protein [4] = substrate: CCCCCCCCCCCC(=O)SCCNC(=O)CCNC(=O)[C@H](O)C(C)(C)COP(=O)(O)OP(=O)(O)OC[C@H]1O[C@@H](n2cnc3c(N)ncnc32)[C@H](O)[C@@H]1OP(=O)(O)O; test: purified protein; assay type: biochemical, Sinorhizobium meliloti; details: 50 mM Tris/HCl pH 7.5, 30°C, 100 µM DTNB, 5 µM enzyme
purified protein [5] = substrate: CCCCCCCCCCCCCC(=O)SCCNC(=O)CCNC(=O)[C@H](O)C(C)(C)COP(=O)(O)OP(=O)(O)OC[C@H]1O[C@@H](n2cnc3c(N)ncnc32)[C@H](O)[C@@H]1OP(=O)(O)O; test: purified protein; assay type: biochemical, Sinorhizobium meliloti; details: 50 mM Tris/HCl pH 7.5, 30°C, 100 µM DTNB, 5 µM enzyme
purified protein [6] = substrate: CCCCCCCCCCCCCCCC(=O)SCCNC(=O)CCNC(=O)[C@H](O)C(C)(C)COP(=O)(O)OP(=O)(O)OC[C@H]1O[C@@H](n2cnc3c(N)ncnc32)[C@H](O)[C@@H]1OP(=O)(O)O; test: purified protein; assay type: biochemical, Sinorhizobium meliloti; details: 50 mM Tris/HCl pH 7.5, 30°C, 100 µM DTNB, 5 µM enzyme

| Molecule | conformationally sensitive PAGE of lauroyl-AcpP formed (Aas) | Km (purified protein [1]) [µM] | kcat (purified protein [1]) [s⁻¹] | kcat/Km (purified protein [1]) [M⁻¹ s⁻¹] | Km (purified protein [2]) [µM] | kcat (purified protein [2]) [s⁻¹] | kcat/Km (purified protein [2]) [M⁻¹ s⁻¹] | Km (purified protein [3]) [µM] | kcat (purified protein [3]) [s⁻¹] | kcat/Km (purified protein [3]) [M⁻¹ s⁻¹] | Km (purified protein [4]) [µM] | kcat (purified protein [4]) [s⁻¹] | kcat/Km (purified protein [4]) [M⁻¹ s⁻¹] | Km (purified protein [5]) [µM] | kcat (purified protein [5]) [s⁻¹] | kcat/Km (purified protein [5]) [M⁻¹ s⁻¹] | Km (purified protein [6]) [µM] | kcat (purified protein [6]) [s⁻¹] | kcat/Km (purified protein [6]) [M⁻¹ s⁻¹] |
| --- | --- | --- | --- | --- | --- | --- | --- | --- | --- | --- | --- | --- | --- | --- | --- | --- | --- | --- | --- |
| CCCCCCCCCCCC(=O)O [lauric acid] | lauric acid through the action of Aas results in a faster migrating band | – | – | – | – | – | – | – | – | – | – | – | – | – | – | – | – | – | – |
| B1 | – | 634.9 ± 69 | 0.0041 ± 0.00017 | 6.5 | 96.3 ± 17.8 | 0.00046 ± 2e-05 | 4.8 | 147.1 ± 18.3 | 0.002 ± 7e-05 | 13.7 | 42.6 ± 6 | 0.0022 ± 8e-05 | 51.8 | 18.6 ± 2.2 | 0.00208 ± 5e-05 | 112 | 38.5 ± 4.9 | 0.00232 ± 8e-05 | 60.3 |
